Patent publication US20200277406A1 (ROCHE DIAGNOSTICS OPERATIONS, published 2020)
“And” between values parts separate entries of the source, which are not always exact repeats. Equal entries are not always repeated.

T1: pIGF-1R(1340-1366)[1346-pTyr]amid (phosphotyrosine at 1346 (1346-pTyr); C-terminal amide)
T1 construct: also called pIGF-1R peptide; phosphorylated IGF-1R peptide (free in solution)
T1 peptide: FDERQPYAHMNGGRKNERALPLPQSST

T2: IGF-1R(1340-1366)amid (C-terminal amide)
T2 construct: also called IGF-1R peptide; non-phosphorylated IGF-1R peptide (free in solution)
T2 peptide: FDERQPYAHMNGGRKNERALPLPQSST

T3: IGF-1R(1340-1366)[1346-pTyr; Glu(Bi-PEG-1340]amid (not fully specified; phosphotyrosine at 1346 (1346-pTyr); biotin-PEG linker bound via glutamic acid corresponding to position 1340; C-terminal amide)
T3 construct: also called pIGF-1R peptide; phosphorylated IGF-1R peptide (biotinylated)
T3 peptide: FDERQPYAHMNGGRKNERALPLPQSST

T4: IGF-1R(1340-1366); Glu(Bi-PEG-1340]amid (not fully specified; biotin-PEG linker bound via glutamic acid corresponding to position 1340; C-terminal amide)
T4 construct: also called IGF-1R peptide; non-phosphorylated IGF-1R peptide (biotinylated)
T4 peptide: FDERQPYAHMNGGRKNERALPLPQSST

B1: T40 dual binding agent (ssFab′ 8.1.2 and ssFab′ 1.4.168 on the T40-Bi linker, linker 10) (bispecific antibody, V domains shown)
VH 1: EVQLQQSGPALVKPGASVKMSCKASGFTFTSYVIHWVKQKPGQGLEWIGYLNPYNDNTKYNEKFKGKATLTSDRSSSTVYMEFSSLTSEDSAVYFCARRGIYAYDHYFDYWGQGTSLTVSS
VL 1: QIVLTQSPAIMSASPGEKVTLTCSASSSVNYMYWYQQKPGSSPRLLIYDTSNLASGVPVRFSGSGSVTSYSLTISRMEAEDAATYYCQQWSTYPLTFGAGTKLELK
VH 2: QCDVKLVESGGGLVKPGGSLKLSCAASGFTFSDYPMSWVRQTPEKRLEWVATITTGGTYTYYPDSIKGRFTISRDNAKNTLYLQMGSLQSEDAAMYYCTRVKTDLWWGLAYWGQGTLVTVSA
VL 2: QLVLTQSSSASFSLGASAKLTCTLSSQHSTYTIEWYQQQPLKPPKYVMELKKDGSHTTGDGIPDRFSGSSSGADRYLSISNIQPEDESIYICGVGDTIKEQFVYVFGGGTKVTVLG
modifications: Fab′ hinge cysteine coupled to ssDNA
B2: ssFab′ 1.4.168 (Fab, V domains shown)
VH: DVKLVESGGGLVKPGGSLKLSCAASGFTFSDYPMSWVRQTPEKRLEWVATITTGGTYTYYPDSIKGRFTISRDNAKNTLYLQMGSLQSEDAAMYYCTRVKTDLWWGLAYWGQGTLVTVSA
VL: QLVLTQSSSASFSLGASAKLTCTLSSQHSTYTIEWYQQQPLKPPKYVMELKKDGSHTTGDGIPDRFSGSSSGADRYLSISNIQPEDESIYICGVGDTIKEQFVYVFGGGTKVTVLG
modifications: hinge-region cysteine of the Fab′ coupled via maleimide to a fluorescein-labelled ssDNA oligonucleotide
notes: Fab′ of murine mAb 1.4.168 (pepsin cleavage, cysteamine reduction), 1:1 conjugated to ssDNA; also called fluorescein-ssFab′ 1.4.168; ssFab′ 1.004.168
B3: T0 dual binding agent (ssFab′ 8.1.2 and ssFab′ 1.4.168 on the T0-Bi 37-mer linker) (bispecific antibody, V domains shown)
VH 1: EVQLQQSGPALVKPGASVKMSCKASGFTFTSYVIHWVKQKPGQGLEWIGYLNPYNDNTKYNEKFKGKATLTSDRSSSTVYMEFSSLTSEDSAVYFCARRGIYAYDHYFDYWGQGTSLTVSS
VL 1: QIVLTQSPAIMSASPGEKVTLTCSASSSVNYMYWYQQKPGSSPRLLIYDTSNLASGVPVRFSGSGSVTSYSLTISRMEAEDAATYYCQQWSTYPLTFGAGTKLELK
VH 2: QCDVKLVESGGGLVKPGGSLKLSCAASGFTFSDYPMSWVRQTPEKRLEWVATITTGGTYTYYPDSIKGRFTISRDNAKNTLYLQMGSLQSEDAAMYYCTRVKTDLWWGLAYWGQGTLVTVSA
VL 2: QLVLTQSSSASFSLGASAKLTCTLSSQHSTYTIEWYQQQPLKPPKYVMELKKDGSHTTGDGIPDRFSGSSSGADRYLSISNIQPEDESIYICGVGDTIKEQFVYVFGGGTKVTVLG
modifications: Fab′ hinge cysteine coupled to ssDNA

Columns and labels:
[1] = biological target: T1, pIGF-1R(1340-1366)[1346-pTyr]amid; assay: SPR (Biacore 3000, SA sensor, 25 °C): ssFab′ hybridised on the captured biotinylated T40-Bi linker (linker 10), peptide injected in solution
Protocol: (§1) 124 RU amino-PEO-biotin were captured on the reference flow cell 1.
(§2) As a control, buffer was injected instead of the ssFabs.
(§3) The dissociation was monitored at 50 μl/min for 5.3 min. The system was regenerated after each concentration step with a 12 sec pulse of 250 mM NaOH and was reloaded with ssFab′ ligand.

[2] = biological target: T2, IGF-1R(1340-1366)amid; assay: as above
Protocol: as §1, §2, §3

[3] = biological target: T1, pIGF-1R(1340-1366)[1346-pTyr]amid; assay: SPR (Biacore 3000, 25 C), dual binder on biotinylated linker on SA chip, peptide in solution; T40-Bi linker (spacer T20-Biotin-dT-T20)
Protocol: (§4) A BIACORE™ 3000 instrument (GE Healthcare) was used with a BIACORE™ SA sensor mounted into the system at T=25° C. The system was preconditioned at 100 μl/min with 3 ×1 min injection of 1 M NaCl in 50 mM NaOH and 1 min 10 mM HCl.
as §1, §2

[4] = biological target: T1, pIGF-1R(1340-1366)[1346-pTyr]amid; assay: SPR (Biacore 3000, SA sensor, 25 °C): ssFab′ hybridised on the captured biotinylated T0-Bi 37-mer linker, peptide injected in solution
Protocol: as §1, §2, §3

[5] = biological target: T2, IGF-1R(1340-1366)amid; assay: as above
Protocol: as §1, §2, §3

[6] = biological target: T3, IGF-1R(1340-1366)[1346-pTyr; …; assay: SPR (Biacore 2000, 25 C), immobilised biotinylated peptide, 100 nM ssFab′ in solution
Protocol: (§5) Subsequently biotinylated peptides were captured on the SA surface in the respective flow cells. […] Finally all flow cells were saturated with d-biotin.
(§6) Report points were set at the end of the analyte association phase (Binding Late, BL) and at the end of the analyte dissociation phase (Stability Late, SL) to monitor the response unit signal heights of each interaction. The dissociation rates kd (1/s) were calculated according to a linear 1:1 Langmuir fit using the BIACORE™ evaluation software 4.1. The complex halftimes in minutes were calculated upon the formula ln(2)/(60*kd).

[7] = biological target: T4, IGF-1R(1340-1366); Glu(Bi-PEG-1340]amid; assay: as above
Protocol: as §5, §6

[8] = biological target: T1, pIGF-1R(1340-1366)[1346-pTyr]amid; assay: SPR (Biacore 3000, 25 C), dual binder on biotinylated linker on SA chip, peptide in solution; T0 linker (no thymidine spacer)
Protocol: as §4, §1, §2

| Binder | Kd [1] | Kd [2] | t1/2 diss [2] [min] | Kd [3] [nM] | Kd [4] | t1/2 diss [4] [min] | Kd [5] | t1/2 diss [5] [min] | T1/2 dis [6] [min] | T1/2 dis [7] [min] | Kd [8] [nM] |
| --- | --- | --- | --- | --- | --- | --- | --- | --- | --- | --- | --- |
| B1 | 0.0125 nM | 0.973 nM and 1 nM | 4.3 | 0.01 | – | – | – | – | – | – | – |
| B2 | 2.14 nM and 2 nM | 1.1 nM and 1 nM | 3 | – | 2.59 nM and 3 nM | 4 | 1.35 nM and 1 nM | 4 | 3 | 3 | – |
| B3 | – | – | – | – | 0.0344 nM | – | 1.2 nM and 1 nM | 5 | – | – | 0.03 |
